Reference: patent US20180237508A1

What was measured:
[1] = target: Human cytokeratin-8 (CK8) at the cell surface of human cancer cell lines (human) (UniProt P05787); test: flow cytometry, ISRECO-3 cells, MAb 5 ug/mL
[2] = target: Human cytokeratin-8 (CK8) at the cell surface of human cancer cell lines (human) (UniProt P05787); test: flow cytometry, HCT116-/- cells, MAb 5 ug/mL
[3] = target: Human cytokeratin-8 (CK8) at the cell surface of human cancer cell lines (human) (UniProt P05787); test: flow cytometry, HCT116 +/+ cells, MAb 5 ug/mL
[4] = target: Human cytokeratin-8 (CK8) at the cell surface of human cancer cell lines (human) (UniProt P05787); test: flow cytometry, ISRECO-1 cells, MAb 5 ug/mL
[5] = target: Human cytokeratin-8 (CK8) at the cell surface of human cancer cell lines (human) (UniProt P05787); test: flow cytometry, ISRECO-2 cells, MAb 5 ug/mL
[6] = target: Human cytokeratin-8 (CK8) at the cell surface of human cancer cell lines (human) (UniProt P05787); test: flow cytometry, MCF-7 cells, MAb 5 ug/mL
[7] = target: Human cytokeratin-8 (CK8) at the cell surface of human cancer cell lines (human) (UniProt P05787); test: flow cytometry, HT29 cells, MAb 5 ug/mL

Human cytokeratin-8 (CK8) at the cell surface of human cancer cell lines (human), sequence (P05787 whole entry): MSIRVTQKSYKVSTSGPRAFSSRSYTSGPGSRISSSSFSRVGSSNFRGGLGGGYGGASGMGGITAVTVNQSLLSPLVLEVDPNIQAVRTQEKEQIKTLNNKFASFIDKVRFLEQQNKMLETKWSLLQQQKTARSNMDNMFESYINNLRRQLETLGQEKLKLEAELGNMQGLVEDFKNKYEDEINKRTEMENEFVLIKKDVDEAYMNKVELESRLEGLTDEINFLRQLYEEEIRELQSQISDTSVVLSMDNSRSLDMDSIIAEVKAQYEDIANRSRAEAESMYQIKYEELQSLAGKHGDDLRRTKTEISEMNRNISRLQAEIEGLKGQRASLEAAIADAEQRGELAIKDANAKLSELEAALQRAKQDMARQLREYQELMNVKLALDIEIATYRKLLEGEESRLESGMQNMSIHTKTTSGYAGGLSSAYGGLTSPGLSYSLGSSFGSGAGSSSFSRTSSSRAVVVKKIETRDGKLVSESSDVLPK

Substance | % (labelled cells) [1] | IFM [1] | % (labelled cells) [2] | IFM [2] | % (labelled cells) [3] | IFM [3] | % (labelled cells) [4] | IFM [4] | % (labelled cells) [5] | IFM [5] | % (labelled cells) [6] | IFM [6] | % (labelled cells) [7] | IFM [7]
1E8 antibody (commercially available antibody ab28050, abcam) | 41% | 402 | 38% | 530 | 35% | 554 | 45% | 562 | 23% | 424 | 52% | 462 | 30% | 418
M20 antibody (commercially available antibody C5301, Sigma) | 33% | 541 | 28% | 517 | 29% | 527 | 50% | 553 | 26% | 473 | 66% | 476 | 17% | 497
